# Assays:
# [1] = Relaxivity of GPEN-DTES-Gd and GTRI-DTES-Gd, proton relaxation time by 6.35T NMR (in vitro test, Test 1); format: physicochemical; settings: for R1 (relaxivity on T1): 24° to 26° C., calculated from relaxation times
# Method: Relaxivity of GPEN-DTES-Gd and GTRI-DTES-Gd (in vitro test)
# An appropriate amount of GPEN-DTES-Gd and GTRI-DTES-Gd were dissolved in distilled water. The relation to water proton exposed to these compounds was determined as a proton relaxation time (T1 and T2, msec) at room temperature (24° to 26° C.) using NMR (6.35T, manufactured by Nihondenshi K. K., Japan).
# GPEN-DTES-Gd (2.3 mM) shortened remarkably the T1 value of water about 60 times and the T2 value of water 85 times. And GTRI-DTES-Gd (2.9 mM) shortened remarkably the T1 value of water about 70 times and the T2 value about 85 times. The relaxivity on T1 and T2 [each R1 and R2, (mM.S)^-1 ] were calculated based on the values in Tables 1 and 2.
# [2] = in vivo; cited from earlier work
# [3] = DTPA-Gd lower than Gd itself; cited from earlier work
# heart = experiment: Contrast enhancement of the heart in rat at 1 hour after intravenous administration, MRI (in vivo test, Test 3); set-up: species or system Sprague-Dawley female rat; settings: 1 hour after i.v. administration, 0.094 mmol/kg Gd vs 0.1 mmol/kg DTPA-Gd, 1.5T, T1 weighted spin echo
# Method: Contrast enhancement of the heart in rat at 1 hour after intravenously administration of GPEN-DTES-Gd (in vivo test)
# A solution of GPEN-DTES-Gd (Gd concentration: 75.1 mM) (0.094 mmol/kg in terms of Gd) was administered to a thiopental anesthetized Sprague-Dawley female rat (214 g, 9-weeks old) through a cannula fixed to femoral vein. At 1 hour after administration, the animal was sacrificed by administration of pentobarbital solution (1 ml) through the above cannula, fixed at prone position in the magnetic field of a MRI spectrometer. MRI measurement (transverse sectional view) of the chest region including the heart was carried out.
# As a control, DTPA-Gd (MAGNEVIST®) was administered to a Sprague-Dawleyfemale rat (body weight: 204 g, 9-weeks old) through a cannula fixed at femoral vein (0.1 mmol/kg) and the measurement (transverse sectional view) of the chest region including the heart was carried out as described above.
# The apparatus was SIGMA (manufactured by GE, U.S.A.) with magnetic field intensity of 1.5T and, as an imaging coil, a 26 cm .phi.bird-cage type head QD coil was used. Imaging was carried out according to spin echo method of T1 weighted (TR/TE, 600/30 msec) under the condition of 10 mm in slice thickness, a resolution of 256×128.
# blood = experiment: Relaxation time of GPEN-DTES-Gd in blood in mouse after intravenous administration (ex vivo test, Test 2); set-up: species or system ICR female mouse; settings: 0.025 mmol/kg in terms of Gd, 15 minutes after administration
# Method: Relaxation time of GPEN-DTES-Gd in blood in mouse after intravenous administration (ex vivo test)
# GPEN-DTES-Gd (Gd concentration: 75 mM) (0.025 mmol/kg in terms of Gd) was administered to a thiopental anesthetized ICR female mouse (body weight: 44 g) through the tail vein. At 15 minutes after administration, the blood was taken from the aorta descendence, and the relaxation time (T1, msec) of the blood at room temperature (24° to 26° C.) was determined with a 6.35T NMR apparatus (manufactured by Nihondenshi K. K., Japan).
# As a control, blood was taken from the aorta descendence of a thiopental anesthetized ICR female mouse (body weight: 55 g) and, according to the same manner, the relaxation time was determined.
# [4] = 2.3 mM in distilled water, 6.35T, room temperature (24° to 26° C.)
Compound,"R1 (relaxivity on T1) ([1]; water, 6.35T)",excretion into the urine (in words) [2],relaxivity relative to Gd itself [3],MRI signal intensity / contrast effect in the heart relative to DTPA-Gd (MAGNEVIST®) (heart),Shortening of the T1 value of water ([1]; 2.3 mM),Shortening of the T2 value of water ([1]; 2.3 mM) [times],"T1 relaxation time [1, 4] [ms]","T2 relaxation time [1, 4] [ms]","in vitro relaxation effect ([1]; in words, compared with DTPA-Gd)","T1 relaxivity in water ([1]; magnetic field intensity 6.35T, 25° C.)","T1 relaxivity relative to DTPA-Gd ([1]; water, 6.35T, 25° C.)",T1 relaxation time effect in blood compared with control mouse (blood),"T1 in blood (blood; tail vein, 6.35T, 24° to 26° C.) [ms]"
"O=C([O-])CN(CCN(CC(=O)[O-])CC(=O)O)CCN(CC(=O)[O-])CC(=O)O.[Gd+3] [DTPA-Gd, (Diethylenetriaminepentaacetic acid)gadolinate]",3.9 (mM · S)^-1,rapidly excreted into the urine after administration,about 1/2,–,–,–,–,–,–,–,–,–,–
(galactosamino-pentamer)-[1-(p-isothiocyanatebenzyl)-diethylenetriaminepentaacetic acid]gadolinate [GPEN-DTES-Gd],7.6 (mM · S)^-1,–,–,about 1.8 times,about 60 times,85,55,26,predominantly higher than that of DTPA-Gd,7.6 (mM.S)^-1,about two,about 2.3 times,769
